Here are results for 75 sequences from the supplement of paper PMC7877785.

± gives the uncertainty stated by the source.

The nature of the data set: self-splicing fitness, log relative to wild type (ln ratio); higher = more splicing; Tetrahymena group I intron in knt gene, E. coli kanamycin selection, DiMSum; sequences stand for … in CUCUCU…GGAGGGAAAAGUUAUCAGGCAUGCACCUGGUAGCUAGUCUUUAAACCAAUAGAUUGCAUCGGUUUAAAAGGCAAGACCGUCAAAUUGCGGGAAAGGGGUCAACAGCCGUUCAGUACCAAGUCUCAGGGGAAACUUUGAGAUGGCCUUGCAAAGGGUAUGGUAAUAAGCUGACGGACAUGGUCCUAACCACGCAGCCAAGUCCUAAGUCAACAGAUCUUCUGUUGAUAUGGAUGCAGUUCACAGACUAAAUGUCGGUCGGGGAAGAUGUAUUCUUCUCAUAAGAUAUAGUCGGACCUCUCCUUAAUGGGAGCUAGCGGAUGAAGUGAUGCAACACUGGAGCCGCUGGGAACUAAUUUGUAUGCGAAAGUAUAUUGAUUAGUUUUGGAGUACUCGUGGUCG
The essentials: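 Six replicate transformations of E. coli BL21(DE3) with a pET-22b(+) library were grown overnight at 37°C or 30°C. The library randomised all eight P1ex-region intron nucleotides, the intron lying in the knt kanamycin-resistance gene, and plates were LB agar with or without 25 μg/mL kanamycin plus 100 μg/mL carbenicillin, 50 μM IPTG and 0.2% rhamnose. Pooled colonies were amplicon-sequenced on an Illumina HiSeq 2500, and fitness is the DiMSum error-weighted combination of wild-type-normalised replicate fold changes, kanamycin versus none.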

For the sequence GGCAAGCAAUAUUACGGCAG, the “self-splicing fitness (ln)” value by setting is: (30 °C) -2.32 ± 0.14; (37 °C) -1.15 ± 0.15.
On to CCCAAGCAAUAUUACGAAAC, for which the “self-splicing fitness (ln)” value (30 °C) was -2.72 ± 0.22 and the “self-splicing fitness (ln)” value (37 °C) was -2.04 ± 0.27.
Turning to AUGGAGCAAUAUUACGACAU, the “self-splicing fitness (ln)” value was -1.36 ± 0.017 (30 °C) and -0.784 ± 0.035 (37 °C).
On the same counts, the results for CAUGAGCAAUAUUACGUGCG are -1.75 ± 0.077 and -0.908 ± 0.083.
Taken in the same sequence, the figures for AGACAGCAAUAUUACGUGAU were -2.36 ± 0.075 and -0.742 ± 0.087.
Taken in the same sequence, the figures for AGCGAGCAAUAUUACGGACU were -1.24 ± 0.15 and 0.232 ± 0.16.
On to GGACAGCAAUAUUACGAGUG, for which the “self-splicing fitness (ln)” value runs as follows: (30 °C) -3.32 ± 0.17; (37 °C) -1.79 ± 0.15.
Taken in the same sequence, the figures for CAUAAGCAAUAUUACGAGGU were -2.81 ± 0.16 and -2.6 ± 0.18.
Taken in the same sequence, the figures for GAGCAGCAAUAUUACGUCGG were -4.09 ± 0.31 and -3.07 ± 0.28.
Taken in the same sequence, the figures for AUACAGCAAUAUUACGGGUA were -1.24 ± 0.078 and -0.645 ± 0.078.
Turning to CCCCAGCAAUAUUACGGAAU, the “self-splicing fitness (ln)” value runs as follows: (30 °C) -3.31 ± 0.13; (37 °C) -2.4 ± 0.2.
On the same counts, the results for UAUCAGCAAUAUUACGUCAC are -4 ± 0.31 and -1.83 ± 0.3.
Taken in the same sequence, the figures for AGAGAGCAAUAUUACGAUCG were -1.94 ± 0.11 and -0.822 ± 0.18.
On the same counts, the results for UCGUAGCAAUAUUACGAUCA are -0.922 ± 0.19 and -0.511 ± 0.17.
As to UGUAAGCAAUAUUACGGGUU, the “self-splicing fitness (ln)” value by setting is: (30 °C) -3.86 ± 0.27; (37 °C) -2 ± 0.2.
UCAUAGCAAUAUUACGUGAG: the “self-splicing fitness (ln)” value (30 °C) is -1.1 ± 0.081 and the “self-splicing fitness (ln)” value (37 °C) was -0.39 ± 0.11.
Taken in the same sequence, the figures for GCAGAGCAAUAUUACGGCGU were -0.715 ± 0.099 and -0.614 ± 0.11.
AAAAAGCAAUAUUACGAAGG: the “self-splicing fitness (ln)” value runs as follows: (30 °C) -3.57 ± 0.23; (37 °C) -1.89 ± 0.23.
Consider UCAGAGCAAUAUUACGGAGC, for which the “self-splicing fitness (ln)” value runs as follows: (30 °C) -3.49 ± 0.36; (37 °C) -1.44 ± 0.36.
For CCGAAGCAAUAUUACGCAUG, the “self-splicing fitness (ln)” value (30 °C) was -1.84 ± 0.11 and the “self-splicing fitness (ln)” value (37 °C) was -0.892 ± 0.12.
For UAUAAGCAAUAUUACGAGUC, the “self-splicing fitness (ln)” value (30 °C) was -1.69 ± 0.32.
For the sequence GGUGAGCAAUAUUACGAACA, the “self-splicing fitness (ln)” value runs as follows: (30 °C) -0.64 ± 0.34; (37 °C) 0.394 ± 0.47.
On the same counts, the results for CCUUAGCAAUAUUACGUAAA are -3.63 ± 0.26 and -1.88 ± 0.3.
On the same counts, the results for GCCCAGCAAUAUUACGUUAG are -3.81 ± 0.14 and -2.26 ± 0.16.
On the same counts, the results for AGUAAGCAAUAUUACGCCCU are -0.35 ± 0.17 and -0.62 ± 0.16.
Take CCAAAGCAAUAUUACGCAGC: the “self-splicing fitness (ln)” value was -3.4 ± 0.26 (30 °C) and -2.49 ± 0.33 (37 °C).
On the same counts, the results for UUAUAGCAAUAUUACGUUGG are -2.91 ± 0.22 and -1.86 ± 0.21.
Taken in the same sequence, the figures for GAAAAGCAAUAUUACGUGGG were -3.69 ± 0.13 and -1.29 ± 0.11.
Taken in the same sequence, the figures for AGUGAGCAAUAUUACGUUAU were -3.13 ± 0.17 and -3.08 ± 0.27.
GAUUAGCAAUAUUACGAUCA: the “self-splicing fitness (ln)” value (30 °C) is -0.826 ± 0.21 and the “self-splicing fitness (ln)” value (37 °C) was -0.493 ± 0.19.
Taken in the same sequence, the figures for GCUGAGCAAUAUUACGGUGG were -3.32 ± 0.22 and -3.95 ± 0.37.
On the same counts, the results for ACGAAGCAAUAUUACGUACU are -0.484 ± 0.064 and -0.0153 ± 0.089.
On the same counts, the results for CCUAAGCAAUAUUACGUUUA are -3.45 ± 0.18 and -3.14 ± 0.2.
For UGAUAGCAAUAUUACGGGAC, the “self-splicing fitness (ln)” value is, setting by setting: (30 °C) -4.2 ± 0.31; (37 °C) -2.54 ± 0.25.
With UGCCAGCAAUAUUACGGUCU, the “self-splicing fitness (ln)” value (30 °C) was -0.21 ± 0.059 and the “self-splicing fitness (ln)” value (37 °C) is 0.456 ± 0.07.
On the same counts, the results for GUCCAGCAAUAUUACGGUGG are -3.36 ± 0.15 and -2.71 ± 0.12.
Taken in the same sequence, the figures for CACUAGCAAUAUUACGCUAU were -3.92 ± 0.3 and -2.38 ± 0.23.
Taken in the same sequence, the figures for GUAGAGCAAUAUUACGAUGG were -2.34 ± 0.091 and -1.59 ± 0.11.
For UUAGAGCAAUAUUACGCGCU, the “self-splicing fitness (ln)” value runs as follows: (30 °C) -1.84 ± 0.41; (37 °C) -1.11 ± 0.47.
Turning to CCUGAGCAAUAUUACGUUAA, the “self-splicing fitness (ln)” value is, setting by setting: (30 °C) -2.92 ± 0.24; (37 °C) -2.52 ± 0.26.
As to GGGUAGCAAUAUUACGUACG, the “self-splicing fitness (ln)” value is -0.676 ± 0.23 (30 °C) and -0.536 ± 0.29 (37 °C).
On the same counts, the results for UUAUAGCAAUAUUACGCGAG are -0.842 ± 0.11 and -0.334 ± 0.12.
On the same counts, the results for AAUGAGCAAUAUUACGAAUA are -3.37 ± 0.39 and -2 ± 0.32.
On the same counts, the results for ACCCAGCAAUAUUACGAAAA are -1.66 ± 0.097 and -1.83 ± 0.13.
CCACAGCAAUAUUACGAGCG: the “self-splicing fitness (ln)” value reads like this: (30 °C) -0.707 ± 0.048; (37 °C) 0.184 ± 0.065.
On the same counts, the results for AGUAAGCAAUAUUACGCCAG are -3.63 ± 0.33 and -1.58 ± 0.29.
On the same counts, the results for CUCCAGCAAUAUUACGGAUA are -1.82 ± 0.11 and -0.962 ± 0.1.
On the same counts, the results for CAUGAGCAAUAUUACGGCAU are -3.35 ± 0.34 and -2.9 ± 0.47.
With GUCCAGCAAUAUUACGGCCG, the “self-splicing fitness (ln)” value (30 °C) was -3.67 ± 0.24 and the “self-splicing fitness (ln)” value (37 °C) is -2.69 ± 0.19.
As to ACCUAGCAAUAUUACGGUGG, the “self-splicing fitness (ln)” value by setting is: (30 °C) -4 ± 0.16; (37 °C) -3.02 ± 0.15.
Taken in the same sequence, the figures for GUGCAGCAAUAUUACGUACG were -2.19 ± 0.086 and -1.18 ± 0.08.
Taken in the same sequence, the figures for CAUGAGCAAUAUUACGGUUG were -1.97 ± 0.094 and -0.986 ± 0.12.
Taken in the same sequence, the figures for UCGGAGCAAUAUUACGGUUA were -2.38 ± 0.47 and -2.3 ± 0.28.
GGGAAGCAAUAUUACGCAGA: the “self-splicing fitness (ln)” value reads like this: (30 °C) -3.81 ± 0.42; (37 °C) -1.65 ± 0.27.
As to UCACAGCAAUAUUACGAACG, the “self-splicing fitness (ln)” value reads like this: (30 °C) -1.61 ± 0.18; (37 °C) -1.19 ± 0.21.
On the same counts, the results for AGGUAGCAAUAUUACGUAUG are -3.698 ± 0.027 and -2.53 ± 0.038.
On the same counts, the results for AGAUAGCAAUAUUACGGGUU are -2.78 ± 0.2 and -2.29 ± 0.25.
Turning to CGGGAGCAAUAUUACGGUCA, the “self-splicing fitness (ln)” value is, setting by setting: (30 °C) -3.17 ± 0.32; (37 °C) -1.93 ± 0.28.
On the same counts, the results for GGCAAGCAAUAUUACGUUUC are -0.714 ± 0.1 and -0.0706 ± 0.14.
CGUUAGCAAUAUUACGAGCU: the “self-splicing fitness (ln)” value reads like this: (30 °C) -1.25 ± 0.064; (37 °C) -0.739 ± 0.082.
As for ACACAGCAAUAUUACGCUUU, the “self-splicing fitness (ln)” value (30 °C) is -2.75 ± 0.14 and the “self-splicing fitness (ln)” value (37 °C) was -1.51 ± 0.098.
Regarding UUCUAGCAAUAUUACGCACA, the “self-splicing fitness (ln)” value by setting is: (30 °C) -0.654 ± 0.27; (37 °C) -0.205 ± 0.23.
Taken in the same sequence, the figures for CAAGAGCAAUAUUACGGGAA were -2.06 ± 0.11 and -3.01 ± 0.18.
Taken in the same sequence, the figures for GACCAGCAAUAUUACGACCG were -0.572 ± 0.11 and -0.318 ± 0.17.
On the same counts, the results for UAGUAGCAAUAUUACGAUGG are -2.93 ± 0.12 and -1.54 ± 0.11.
Take UUAGAGCAAUAUUACGUGCG: the “self-splicing fitness (ln)” value is -1.28 ± 0.1 (30 °C) and -0.87 ± 0.14 (37 °C).
Taken in the same sequence, the figures for CCACAGCAAUAUUACGCGUA were -2.81 ± 0.18 and -2.41 ± 0.2.
Taken in the same sequence, the figures for GCCGAGCAAUAUUACGAGUA were -2.36 ± 0.11 and -1.43 ± 0.086.
On the same counts, the results for GAGUAGCAAUAUUACGGCCA are -1.95 ± 0.18 and 0.281 ± 0.26.
For the sequence ACGUAGCAAUAUUACGACGA, the “self-splicing fitness (ln)” value is 0.179 ± 0.11 (30 °C) and -0.0557 ± 0.12 (37 °C).
Taken in the same sequence, the figures for UCACAGCAAUAUUACGAUCA were -1.45 ± 0.091 and -0.503 ± 0.088.
In the case of AUAAAGCAAUAUUACGGGUU, the “self-splicing fitness (ln)” value is -2.17 ± 0.09 (30 °C) and -1.17 ± 0.098 (37 °C).
Take GAGUAGCAAUAUUACGUUUG: the “self-splicing fitness (ln)” value is, setting by setting: (30 °C) -3.89 ± 0.16; (37 °C) -3.88 ± 0.24.
On to CGGAAGCAAUAUUACGAAUA, for which the “self-splicing fitness (ln)” value (30 °C) was -2.53 ± 0.39.
Take UAAAAGCAAUAUUACGAUAC: the “self-splicing fitness (ln)” value is -2.36 ± 0.31 (30 °C) and -3.93 ± 0.46 (37 °C).
